From the nanobody polyreactivity screen of Harvey et al. (2022)

Assay: yeast display, Sf9 membrane polyspecificity reagent, FACS + sequencing; frameworks hold sequencing errors
How it was run: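 After 36–48 hours of galactose induction, yeast (Saccharomyces cerevisiae BJ5465) displaying a synthetic nanobody library were stained at 4 °C for 1 hour with 10% biotinylated, detergent-solubilized Sf9 membrane reagent. Streptavidin microbeads enriched the stained cells before FACS sorting into low and high (top ~1%) gates on anti-HA and streptavidin fluorescence. Each clone's polyreactivity label reflects its gate of origin.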

Row | Sequence | polyreactivity (PSR sort gate)
1 | QVQLVESGGGLVQAGGSLRLSCAASGRTFYSYAIGWYREAPGKERELVASISSGGGTNYADSVKGRFTISRDNAKNTVYLQMNSLKPDDTAVYYCAAKYWIFYPYDYWGQGTQVTVSS | low polyreactivity
2 | QVQLVESGGGLVQAGGSLRLSCAASGRTFYSYAMGWSRQAPGKERELVAAISRAGGTYYADSVKGRFTLSRDNAKNTVYLQMNSLKPEDTAVYYCAARQAVYGLRSDFYYWGQGTQVTVSS | high polyreactivity
3 | QVQLVESGGGLVQAGGSLRLSCAASGRTFYSYAMGWYRKAPGKERELVAAISASGGRTYYADSVKGRFTISRDNAKNTVYLQMNSLKPEDTAVYYCAAYPWYRMWGQGTQVTVSS | high polyreactivity
4 | QVQLVESGGGLVQAGGSLRLSCAASGRTFYSYAMGWYRQAPGKERELVAAISFRDGRTYYADSVKGRFTISRDNAKNTVYLQMNSLKPEDTAVYYCAAQLSHYYSLYYYWGQGTQVTVSS | high polyreactivity
5 | QVQLVESGGGLVQAGGSLRLSCAASGRTFYSYAMGWYRQAPGKERELVAAISRSGNTYYADSVKGRFTISRDNAKNTVYLQMNSLKPEDTAVYYCAAYYWWGYPENDYWGQGTQVTVSS | high polyreactivity
6 | QVQLVESGGGLVQAGGSLRLSCAASGRTFYSYVMGWSRQAPGKERELVAAISQSGGNTYYADSVKGRFTISRDNAKNTVYLQMNSLKPEDTAVYYCAAGGVLTSWFGQEYEYYYWGQGTQVTVSS | high polyreactivity
7 | QVQLVESGGGLVQAGGSLRLSCAASGRTFYTNAMGCYRQAPGKERELVARIRRGGTTNYADSVKGRFTISRDNAKNTVYLQMNSLKPEDTAVYYCSYSYGYWGQGTQVTVSS | high polyreactivity
8 | QVQLVESGGGLVQAGGSLRLSCAASGRTFYTNVMGWYRQAPGKERELVAAITTSSSRTYYADSVKGRFTISRDNAKNTVYLQMNSLKPEDTAVYYCAARIHGSWSFDYWGQGTQVTVSS | low polyreactivity
9 | QVQLVESGGGLVQAGGSLRLSCAASGRTFYTYGMGWYRQAPGKERELVAAITETGDSTYYADSVKGRFTISRDNAKNTVYLQMNSLKPEDTAVYYCAADYRAPLDYWGQGTQVTVSS | low polyreactivity
10 | QVQLVESGGGLVQAGGSLRLSCAASGRTFYVNAMGWYRQAHGKERELVASITSGGSTYYADSVKGRFTISRDNAKNTVYLQMNSLKPEDTAVYYCAARWVQRLRHYIFYYWGQGTQGTVSS | high polyreactivity
11 | QVQLVESGGGLVQAGGSLRLSCAASGRTFYVNAMGWYRQAPGKERELVATITDRGGRTYYADSVKGRFTISRDNAKNTVYLQMNSLKPEDTAVYYCAATRWYEVDYWGQGTQVTVSS | low polyreactivity
12 | QVQLVESGGGLVQAGGSLRLSCAASGRTFYVNTMGWYRQAHGKEKDLVARITRGGSTYYADSVKGRFTISRDNAKNTVYLQMNSLKPEDTAVYYCATDHFPVYSTHVIYEFDYWGQGTQVTVSS | low polyreactivity
13 | QVQLVESGGGLVQAGGSLRLSCAASGRTFYVNTMRWYRQAPGKEREFVARITRGGSTYYADSVKGRFTISRDNAMNTVYLEMNSLKPEDTAFYYCGTDHFPVYSTHVIYEFDYWGQGTQVTVSS | low polyreactivity
14 | QVQLVESGGGLVQAGGSLRLSCAASGRTFYWNAMGWYRQAPGKERELVAAITRNGGSTYYADSVKGRFTISRDNAKNNVYLQMNSLKPEDTAVYYCAARKRYGAGYDYWGQGTQVTVSS | high polyreactivity
15 | QVQLVESGGGLVQAGGSLRLSCAASGRTFYWNAMGWYRQAPGKERELVAGISRGGGITYYADSVKGRFTISRDNAKYTVYLQMNSLKPEDTAVYYCNSRAGRQLARYGYWGQGTQVTVSS | high polyreactivity
16 | QVQLVESGGGLVQAGGSLRLSCAASGRTFYWNAMGWYRQAPGKERELVASINGGGSTYYADSVKGRFTISRDNAKNTVYLKMNSLKPEDTAVYYCNTSYIIWYDSWGQGTQVTVSS | low polyreactivity
17 | QVQLVESGGGLVQAGGSLRLSCAASGRTFYWYAMGWYRQAPGKERELVAAITSGGSTNYADSVKGRFTISRDNAKNTVYLQMNSLKPEDTAVYYCAARRSVRRGGDYYWGQGTQVTVSS | high polyreactivity
18 | QVQLVESGGGLVQAGGSLRLSCAASGRTFYWYTMGWYRQAPGKERELVAAISIGGITSYADSVKGRFTISRDNAKNTVYLQMNSLKPEDTAVYYCAAESACSRPYFNSIHRRDSWGQGTQVTVSS | low polyreactivity
19 | QVQLVESGGGLVQAGGSLRLSCAASGRTFYYAMGWYRQAPGKERELVAAISWSGGRTYYADSVKARFTISRDNAKNTVYLQMNSLKPEDTAVYFCAAIYYYSPRDGFIYWGQGTQVTVSS | high polyreactivity
20 | QVQLVESGGGLVQAGGSLRLSCAASGRTFYYAMGWYRQAPGKERELVAAITSSSSTYYADSVKGRFTISRDNAKNTVYLQLNSVKPEDTAVYYCNAADDPYGSPSYGYDYWGQGTQVTVSS | low polyreactivity
21 | QVQLVESGGGLVQAGGSLRLSCAASGRTFYYNGMAWYRQAPGKERELVAAITSGGTTTYADSVKGLFTISRDNAKNSVYLQMNSVKPEETAVYYSNADYWAVNYDYCGQGTQVTVSS | low polyreactivity
22 | QVQLVESGGGLVQAGGSLRLSCAASGRTFYYNTMGWYRQAPGKERELVAAISWRTGSTYYADSVKGRFTISRDNAKNTVYLQMNSLKPEDTAVYYCAAVLFGYPRTIGTWYDRYYYWGQGTQVTVSS | high polyreactivity

Row | Sequence | polyreactivity (PSR sort gate)
23 | QVQLVESGGGLVQAGGSLRLSCAASGRTFYYNTMGWYRQAPGKERELVASITSGSSTYYADSVKGRFTISRDNAKNTVYLQMNSLKPEDTEVYYCAVYRRYSVKYHYGYWGQGTQVTVSS | high polyreactivity
24 | QVQLVESGGGLVQAGGSLRLSCAASGRTFYYNTMGWYRQAPGKERELVATITSSGGRTYYADSVKGRFTISRDNAKNTVYLQMNSLKPEDTAVYYCNAALSRAFKHSTGYDYWGQGTQVTVSS | low polyreactivity
25 | QVQLVESGGGLVQAGGSLRLSCAASGRTFYYYALGWYRQAPGKERELVAVIRSSGDSTYYADSVKGRFTISRDNANNTVYLQMNSLKPEDTAVYYCNADPGEVLVGYDYWGQGTQVTVSS | low polyreactivity
26 | QVQLVESGGGLVQAGGSLRLSCAASGRTFYYYAMGGYRQAPGKERELVAAISKSATRTYYADSVKGRFTISRDNAKNTVYLQMNSLKPEDTAVYYCATGQYLRTSRYYYWGQGTQVTVSS | high polyreactivity
27 | QVQLVESGGGLVQAGGSLRLSCAASGRTFYYYAMGRYRQAPGKEREFVASISYSGARTYYADSVKGRFTISRDNAKNTVYLQMNSLKPEDTAVYYCAASWRSGRGTYGYWGQGTQVTVSS | high polyreactivity
28 | QVQLVESGGGLVQAGGSLRLSCAASGRTFYYYAMGWYRQAPGKEREFVAAISWSGVRTSYADSVKGRFTISRDNAKNTVYLQMNSQKPEDTAVYYCNVAVAFYYDYWYSTYLTYEYDYWGQGTQVTVSS | high polyreactivity
29 | QVQLVESGGGLVQAGGSLRLSCAASGRTFYYYAMGWYRQAPGKEREFVAAITTRGGSTYYADSVKGRFTISRDNAKNTVYLQMNSLKPEDTAVYYCAARSYYQGGYYYWGQGTQVTVSS | high polyreactivity
30 | QVQLVESGGGLVQAGGSLRLSCAASGRTFYYYAMGWYRQAPGKERELVAAISSRGGSTYYADSVKGRFTISRDNAKNTVYLQMNSLKPEDTAVYYCAAERYFVLYRYYSYAYYYWGQGTQVTVSS | high polyreactivity
31 | QVQLVESGGGLVQAGGSLRLSCAASGRTFYYYAMGWYRQAPGKERELVAAISWSGGRTYYADSVKGRFTISRDNAKNTVYLQMNSLKPEDTAVYYCAASSTGYGGSTYYYWGQGTQVTVSS | low polyreactivity
32 | QVQLVESGGGLVQAGGSLRLSCAASGRTFYYYAMGWYRQAPGKERELVAGISWSAGSTYYADSVKGRFTISRDYAKNTVYLQMNSLKPEDTAVYYCAARYWQSYRSQVTHSSTLDYWGQGTQVTVSS | low polyreactivity
33 | QVQLVESGGGLVQAGGSLRLSCAASGRTFYYYAMGWYRQAPGKERELVASISWSGGSTYYADSVKGRFTISRDNAKNTVYLQMNSLKPEDTAVYYCNAQYHTYRWLYAVYLSGDYWGQGTQVTVSS | low polyreactivity
34 | QVQLVESGGGLVQAGGSLRLSCAASGRTFYYYVMGWYRQAPGKEREFVAAITSGGSTNYADSVKGRFTISRDNAKNTVYLQMNSLKPEDTAVYYCAAGKYTIYGYWTPYDYWGQGTQVTVSS | low polyreactivity
35 | QVQLVESGGGLVQAGGSLRLSCAASGRTGKNAMGWYRQAPVKERELVAAIRYNGGSTYYADSVKGRFTISRDNAKNTVYLQMNSLKPEDTAVYYCAAASRRHNGSAFNYWGQGTLVTVSS | high polyreactivity
36 | QVQLVESGGGLVQAGGSLRLSCAASGRTGVNAMGWYRQAPGKERGMVAAINTSVGRTYYADSVKGRFTISRDNAKNTVYLQMNSLKPEDTAVYYCNTDRLGAARYDYWGQGTQVTVSS | low polyreactivity
37 | QVQLVESGGGLVQAGGSLRLSCAASGRTICRNVMGWYRQAPGKERELVAAISRSGGSTYYADSVKGRFTISRDNAKNTVYLQMNSLKPEVTAVYYCAAYSVGDYYWGQGTQVTVSS | high polyreactivity
38 | QVQLVESGGGLVQAGGSLRLSCAASGRTIDDYDMGWYRQAPGKERELVADINSGGSTYYADSVKGRFTISRDNAKNTVYLQMNSLKPEDTAVYYCAATLVPWPYTGPRYGYWGQGTQVTVSS | high polyreactivity
39 | QVQLVESGGGLVQAGGSLRLSCAASGRTIDHYAMGWYRQAPGKERELVAAISTTGGSTYYADSVKGRFTISRDNAKNTVYLQMNSLKPEDTAVYYCAARGLRTGGYWGQGTQVTVSS | high polyreactivity
40 | QVQLVESGGGLVQAGGSLRLSCAASGRTIGAYAMGWYRQAPGKEREFVAAITFGGGPTYYADSVKGRFTISRDNAKNTVYLQMNSLKPEDTAVYYCAKRIDLSLPYARYDYWGQVTQVTVSS | low polyreactivity
41 | QVQLVESGGGLVQAGGSLRLSCAASGRTIGGYAMGWYRQAPGKEREMVAAINYSGGTTYYADSVKGRFTISRDNAKNTVYLQMNSLKPEDTAVYYCIRDYHSESGNPGYQYGYWGQGTQVTVSS | high polyreactivity
42 | QVQLVESGGGLVQAGGSLRLSCAASGRTIGINAMGWYRQAPGKERELVAVISFGDGGTYYADSVKGRFTISRDNAKNTVYLQMNSLKPEDTEVYYCATDYQSTSVWGGHFVINPYDYWGQGTQVTVSS | low polyreactivity
43 | QVQLVESGGGLVQAGGSLRLSCAASGRTIGVYAMGWYRQAPGKERELVAAISWSGGTTYYADSVKGRFTISRDNAKNTVYLQMNSLKPEDTAVYYCAADSYTEVDYWGQGSQVTVSS | low polyreactivity
